Measured values from article PMC8514162.
Like-named read-outs stand apart in the source and are kept apart here.

Tests used:
Experiment in all cases: native MS
[1] = biological target: haptoglobin Hp 2-1 isoform HL(L*H)2LH (human) (UniProt P00738)
[2] = biological target: haptoglobin Hp 1-1, tetramer H-L-L-H (human) (UniProt P00738)
[3] = biological target: haptoglobin Hp 2-1 isoform HL(L*H)LH (human) (UniProt P00738)
[4] = biological target: haptoglobin Hp 1-1, tetramer H-L-L-H (human) (UniProt P00738); remark: listed apart in the source
[5] = biological target: haptoglobin Hp 2-1 isoform HL(L*H)LH (human) (UniProt P00738); remark: listed apart in the source

stoichiometry N (dimeric Hb subunits per HL(L*H)2LH) [1]: 4
stoichiometry N (Hb dimers per Hp molecule) [2]: 2
stoichiometry N (semi-Hb dimers per HLLH) [2]: 2
stoichiometry N (α*β* dimers per HLLH) [2]: 2
stoichiometry N (semi-Hb dimers per HL(L*H)LH) [3]: 3
stoichiometry N (α*β* dimers per HLLH) [4]: 2
stoichiometry N (semi-Hb dimers per HL(L*H)LH) [5]: 3
Substance: semi-hemoglobin dimer α*β* of hemoglobin (Hb) (from UniProt P69905 1-142; P68871 1-147) (complex)
